Source: paper PMC5906480, “Tau Antibody Structure Reveals a Molecular Switch Defining a Pathological Conformation of the Tau Protein” (Scientific Reports, 2018)

What was measured:
[1] = tested on: normal tau in brain sections from healthy control subjects (prefrontal cortex); assay: Immunohistochemistry, healthy control brain sections; assay type: binding, human; details: C5.2 at 0.1 to 1 μg/mL, overnight 4 °C, paraffin sections
Procedure: Paraffin sections of 4 μm thickness were prepared from blocks of PFA-fixed prefrontal cortex from AD donors and non-demented controls obtained from Tissue Solutions (Glasgow, UK). The sections were deparaffinised, rehydrated and subjected to antigen retrieval by boiling in 10 mM citrate buffer pH 6 for 5 min. Endogenous peroxidase was quenched for 10 min with 1% H2O2 in PBS. Sections were then incubated 20 min in blocking buffer followed by overnight incubation in a humidified chamber at 4 °C with primary antibody at 0.1 to 1 μg/mL in incubation buffer. Between each incubation step, the sections were washed 3 × 10 min in wash buffer. Subsequently, the sections were incubated at room temperature in the following solutions; 60 min with a biotinylated secondary Ab diluted 1:200 in wash buffer; 60 min in ABC; 20 min in DAB. Finally, the sections were counterstained with hematoxylin and coverslipped.

[2] = tested on: tau in brain fractions of rTg4510 mice overexpressing human tau with P301L mutation; assay: Western and dot blot, rTg4510 mouse brain; assay type: binding, human tau in rTg4510 mouse; details: C5.2 1 µg/mL overnight 4 °C, 24 weeks old mice
Excerpt: rTg4510, tTA and non-Tg littermate F1 mice were bred at Taconic, Denmark. Mice expressing the tTA activator transgenes were maintained on 129S6 background strain (Taconic) and mutant tau responder mice were maintained in the FVB/NCrl background strain (Taconic). Mice were screened by PCR using the following primer pairs [NT] and [NT] for the tTA activator transgene and [NT] and [NT] for the mutant tau responder transgene. rTg4510, tTA and non-Tg littermates were group-housed (5 animals/cage) and received water and food ad libitum (Brogaarden, Denmark) as well as environmental enrichment. The light/dark cycle was 12 hours; room temperature was 21 ± 2 °C and a relative humidity of 55% ± 5%. All animal experiments were performed in accordance with the European Communities Council Directive #86/609, the directives of the Danish National Committee on Animal Research Ethics, and Danish legislation on experimental animals (license no. 2014-15-0201-00339). Mice were euthanized by cervical dislocation. Brains were quickly removed, weighed and divided sagittally down the midline to yield two hemispheres. […] Tau and pTau levels were assessed in the samples using 1 μg/mL C5.2 overnight at 4 °C. A secondary fluorophore conjugated IgG antibody was used (IRDye 680 Goat anti-mouse, LICOR biosciences) and the signal was quantified using Odyssey CLx and Image studio software (LI-COR biosciences). […]

B1: C5.2: novel mouse monoclonal antibody that targets the pS396 tau epitope region (antibody, V domains shown)
VH: QVQLQQSDAELVKPGASVKISCKASGYTFTDRTIHWVKQRPEQGLEWIGYIYPGDDSTKYNDMFKAKATLTADKSSNTAYMQLNSLTSDDSAVYFCARRGTMDYWGQGTSVTVSS
VL: DVQMIQSPSSLSASLGDIVTMTCQASQDTSINLNWFQQKPGKAPKLLIYGASNLEDGVPSRFSGSRYGTDFTLTISSLEDEDMATYFCLQHTYLPFTFGSGTKLEIK
**Q.** With B1 as the molecule, how does the “Binding to normal tau in brain sections” value [1] read?
**A.** does not bind to normal tau

**Q.** And the “Binding to insoluble tau fraction (P3)” value ([2]; sarkosyl-insoluble P3)?
**A.** binds predominantly to an insoluble tau fraction (P3)

**Q.** And the “Reactivity to soluble tau fraction (S1)” value ([2]; soluble S1)?
**A.** also has reactivity to a soluble tau fraction (S1)
